Earlier results, collected in publication PMC6235721.

Target: FabI (Escherichia coli) (UniProt P0AEK4)
UniProt P0AEK4, sequence (P0AEK4 2-262): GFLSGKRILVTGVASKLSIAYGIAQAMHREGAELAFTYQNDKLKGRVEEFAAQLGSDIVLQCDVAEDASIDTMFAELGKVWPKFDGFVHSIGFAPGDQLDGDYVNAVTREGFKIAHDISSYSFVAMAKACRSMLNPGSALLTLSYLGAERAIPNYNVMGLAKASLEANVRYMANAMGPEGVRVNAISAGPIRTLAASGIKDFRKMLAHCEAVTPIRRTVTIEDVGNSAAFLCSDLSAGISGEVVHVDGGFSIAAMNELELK

For crypto-58-AcpP (from UniProt P0A6A8), the Kd is listed as 712 nM.
